The record followed here is PMC7144908.

Data set [1] concerns the target T1, SV40 large T antigen (Tag) (Simian virus 40, UniProt P03070 1-708). Description: EMSA. In general terms: Mobility shift assays separate free from complexed probe on a gel.
Data set [2] has as its target T1, SV40 large T antigen (Tag). Put plainly: EMSA. This is another data set of the same source.
For data set [3], the target named is SV40 large T antigen (Tag);Replication protein A (RPA) (Simian virus 40;human, UniProt P03070;P27694;P15927;P35244 1-708;1-616;1-270;1-121, |). Description: EMSA.
Data set [4] addresses T1, SV40 large T antigen (Tag). Put plainly: DSF. On the technique in general: DSF heats the sample and reads unfolding from a dye or from intrinsic fluorescence.
The target of data set [5] is Replication protein A (RPA) (human, UniProt P27694;P15927;P35244 1-616;1-270;1-121). Description: EMSA.
Data set [6] has as its target T1, SV40 large T antigen (Tag). Put plainly: EMSA. This is another data set of the same source.
The target of data set [7] is T1, SV40 large T antigen (Tag). Description: DSF. This is another data set of the same source.
Data set [8] concerns the target T1, SV40 large T antigen (Tag). Description: EMSA. The source holds these as a separate data set.
The target of data set [9] is T1, SV40 large T antigen (Tag). Put plainly: EMSA. The source holds these as a separate data set.
In data set [10] the target is T1, SV40 large T antigen (Tag). Description: DSF. This is another data set of the same source.
For data set [11], the target named is T1, SV40 large T antigen (Tag). Description: EMSA. The source holds these as a separate data set.
In data set [12] the target is T1, SV40 large T antigen (Tag). Put plainly: EMSA. The source holds these as a separate data set.
Data set [13] deals with T1, SV40 large T antigen (Tag). Description: DSF. This is another data set of the same source.
For data set [14], the target named is T1, SV40 large T antigen (Tag). Description: AUC.

T1 sequence (P03070 whole entry): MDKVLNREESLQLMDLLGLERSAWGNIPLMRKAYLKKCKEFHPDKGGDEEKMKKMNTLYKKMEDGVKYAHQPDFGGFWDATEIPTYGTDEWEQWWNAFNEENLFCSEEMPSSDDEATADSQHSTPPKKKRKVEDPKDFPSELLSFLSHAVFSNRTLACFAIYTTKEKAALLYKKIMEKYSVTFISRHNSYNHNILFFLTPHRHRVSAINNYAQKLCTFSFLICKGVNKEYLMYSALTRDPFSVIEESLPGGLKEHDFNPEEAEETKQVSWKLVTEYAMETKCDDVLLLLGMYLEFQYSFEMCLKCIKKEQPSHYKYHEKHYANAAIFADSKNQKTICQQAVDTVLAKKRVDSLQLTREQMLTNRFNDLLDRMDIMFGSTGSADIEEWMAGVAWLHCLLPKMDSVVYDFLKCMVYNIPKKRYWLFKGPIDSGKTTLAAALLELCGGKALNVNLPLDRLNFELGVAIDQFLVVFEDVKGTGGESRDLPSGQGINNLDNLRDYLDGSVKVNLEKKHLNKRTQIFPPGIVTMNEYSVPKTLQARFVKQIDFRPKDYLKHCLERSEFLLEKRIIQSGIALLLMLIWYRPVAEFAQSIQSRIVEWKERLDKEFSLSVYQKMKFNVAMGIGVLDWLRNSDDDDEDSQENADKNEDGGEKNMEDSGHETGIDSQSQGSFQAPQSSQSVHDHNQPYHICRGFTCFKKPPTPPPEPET
Chain of SV40 large T antigen (Tag);Replication protein A (RPA) (P03070 whole entry, chain 1 of 4): as the sequence (P03070 whole entry) above
Chain of SV40 large T antigen (Tag);Replication protein A (RPA) (P27694 whole entry, chain 2 of 4): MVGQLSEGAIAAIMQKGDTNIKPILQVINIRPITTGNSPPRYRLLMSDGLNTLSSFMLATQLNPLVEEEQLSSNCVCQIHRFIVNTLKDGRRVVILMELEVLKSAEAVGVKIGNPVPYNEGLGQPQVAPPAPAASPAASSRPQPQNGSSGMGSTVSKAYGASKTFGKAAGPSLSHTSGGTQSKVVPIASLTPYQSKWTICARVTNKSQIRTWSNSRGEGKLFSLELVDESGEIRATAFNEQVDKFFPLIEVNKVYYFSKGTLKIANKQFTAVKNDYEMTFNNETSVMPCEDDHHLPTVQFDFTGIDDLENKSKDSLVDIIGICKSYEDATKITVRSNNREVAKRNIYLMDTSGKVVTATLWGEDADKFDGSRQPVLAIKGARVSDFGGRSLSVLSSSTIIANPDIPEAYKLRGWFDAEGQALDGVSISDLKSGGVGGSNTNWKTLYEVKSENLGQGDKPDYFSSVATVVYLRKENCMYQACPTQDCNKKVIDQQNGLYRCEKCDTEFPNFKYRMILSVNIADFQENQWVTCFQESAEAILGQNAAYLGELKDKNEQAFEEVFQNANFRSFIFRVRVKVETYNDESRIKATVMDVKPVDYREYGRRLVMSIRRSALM
Chain of SV40 large T antigen (Tag);Replication protein A (RPA) (P15927 whole entry, chain 3 of 4): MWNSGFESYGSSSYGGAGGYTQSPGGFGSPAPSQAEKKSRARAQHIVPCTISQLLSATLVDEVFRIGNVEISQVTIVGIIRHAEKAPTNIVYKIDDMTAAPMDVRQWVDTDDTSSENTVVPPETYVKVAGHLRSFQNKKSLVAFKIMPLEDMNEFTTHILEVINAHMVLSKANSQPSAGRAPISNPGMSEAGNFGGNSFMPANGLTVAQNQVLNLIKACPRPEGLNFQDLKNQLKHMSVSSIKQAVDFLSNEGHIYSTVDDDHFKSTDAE
Chain of SV40 large T antigen (Tag);Replication protein A (RPA) (P35244 whole entry, chain 4 of 4): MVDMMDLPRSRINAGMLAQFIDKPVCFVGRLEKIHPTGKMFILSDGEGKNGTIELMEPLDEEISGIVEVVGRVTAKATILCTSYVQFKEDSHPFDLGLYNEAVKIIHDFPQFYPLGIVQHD
Chain of Replication protein A (RPA) (P27694 whole entry, chain 1 of 3): as the sequence (P27694 whole entry, chain 2 of 4) above
Chain of Replication protein A (RPA) (P15927 whole entry, chain 2 of 3): as the sequence (P15927 whole entry, chain 3 of 4) above
Chain of Replication protein A (RPA) (P35244 whole entry, chain 3 of 3): as the sequence (P35244 whole entry, chain 4 of 4) above

B1: ssDNA(GAPDH) (ssDNA)
DNA: CGACAGTCAGCCGCATCTTCTTTTGCGTCGCCAGCCGAGCCCTATAGTGAGTCGTAT
For B1, the Kd is about 110 nM in [1]; 40 ± 10 nM in data set [2]; 10 ± 1 nM in data set [4]; about 10 nM in data set [5]; 80 ± 40 nM in data set [6]. For the same molecule, the binding result in [3] is “binds”.

B2: dsDNA(GAPDH) (dsDNA)
DNA 1: B1 DNA
DNA 2: ATACGACTCACTATAGGGCTCGGCTGGCGACGCAAAAGAAGATGCGGCTGACTGTCG
B2 displayed a Kd in data set [7] of 5800 ± 4000 nM.

B3: ssDNA(Site2) (ssDNA)
DNA: GCTCAGAGGCCGAGGCGGCCTCGGCCTCTGCATAAATAAAAAAAATTAGTCAGCCAT
As to B3, the Kd in data set [7] came out at 40 ± 7 nM; in data set [8], 70 ± 10 nM; in [9] it was 40 ± 10 nM; in data set [10] it was 100 ± 30 nM; in [2] it was 70 ± 8 nM; in data set [4], 50 ± 10 nM. Also, the Kd in data set [11] came to 40 ± 5 nM; in data set [12], 80 ± 30 nM; in [13] it was 200 ± 60 nM.

B4: dsDNA(Site2) (dsDNA)
DNA 1: B3 DNA
DNA 2: ATGGCTGACTAATTTTTTTTATTTATGCAGAGGCCGAGGCCGCCTCGGCCTCTGAGC
For B4, the results for the Kd in data set [7], in [2] and in [11] were 120 ± 110 nM, 220 ± 130 nM and 100 ± 50 nM, respectively.
GGTCGACTCTAGAGGATCAGATCTGGTACCTCTAGACTCGAGGCATGC (ssDNA) [ssDNA (gap) 48-mer]: in [14], the binding result was “binds”.

Broadly, the Kd is the free concentration of one partner at which half of the binding sites on the other are occupied at equilibrium, for simple one-to-one binding. A low value points to a tighter complex.
